Reference: patent publication US20160060307A1 (KYUNGPOOK NATIONAL UNIVERSITY INDUSTRY ACADEMIC COOPERATION …, published 2016)

T1: IL-4 receptor protein immobilised on carboxymethyl dextran chip (SPR) (Homo sapiens (Human), UniProt P24394 26-232)
T1 construct: Soluble protein coupled to the chip by EDC/NHS
T1 sequence: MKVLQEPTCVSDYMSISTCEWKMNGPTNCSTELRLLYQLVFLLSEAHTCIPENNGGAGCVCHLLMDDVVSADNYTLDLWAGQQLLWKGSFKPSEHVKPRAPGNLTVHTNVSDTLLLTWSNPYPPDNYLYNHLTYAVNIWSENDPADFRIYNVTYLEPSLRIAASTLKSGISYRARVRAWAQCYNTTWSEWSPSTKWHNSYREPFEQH

B1: FTL-GG-AP1S: ferritin having AP1S inserted in GG cassette (human ferritin light chain, fourth loop) (designed binder)
chain: MSSQIRQNYSTDVEAAVNSLVNLYLQASYTYLSLGFYFDRDDVALEGVSHFFRELAEEKREGYERLLKMQNQRGGRALFQDIKKPAEDEWGKTPDAMKAAMALEKKLNQALLDLHALGSARTDPHLCDFLETHFLDEEVKLIKKMGDHLTNLHRGSRKRLDRNGGPEAGLGEYLFERLTLKHD
modifications: One monomer is given; it assembles into a 24-mer ferritin cage.
notes: It forms a ferritin-like cage (24-mer); also called FTL-AP1; not shown: His tag from the pET28a(+) vector (Ni-NTA purification, anti-His probe)
B2: FTL-GP-AP1S: ferritin having AP1S inserted in GP cassette (human ferritin light chain, fourth loop) (designed binder)
chain: MSSQIRQNYSTDVEAAVNSLVNLYLQASYTYLSLGFYFDRDDVALEGVSHFFRELAEEKREGYERLLKMQNQRGGRALFQDIKKPAEDEWGKTPDAMKAAMALEKKLNQALLDLHALGSARTDPHLCDFLETHFLDEEVKLIKKMGDHLTNLHRLGSRKRLDRNGPEAGLGEYLFERLTLKHD
modifications: One monomer is given; it assembles into a 24-mer ferritin cage.
notes: pET28a(+) expression with Ni-NTA purification (His tag); Cage-forming; not shown: His tag from the pET28a(+) vector (Ni-NTA purification, anti-His probe)
B3: FTL-GG-AP1L: ferritin having AP1L inserted in GG cassette (human ferritin light chain, fourth loop) (designed binder)
chain: MSSQIRQNYSTDVEAAVNSLVNLYLQASYTYLSLGFYFDRDDVALEGVSHFFRELAEEKREGYERLLKMQNQRGGRALFQDIKKPAEDEWGKTPDAMKAAMALEKKLNQALLDLHALGSARTDPHLCDFLETHFLDEEVKLIKKMGDHLTNLHRGSCRKRLDRNCGGPEAGLGEYLFERLTLKHD
modifications: One monomer is given; it assembles into a 24-mer ferritin cage.
notes: pET28a(+) expression with Ni-NTA purification (His tag); Cage-forming; also called 157cysAP1-PBNC; not shown: His tag from the pET28a(+) vector (Ni-NTA purification, anti-His probe)
B4: FTL-GP-AP1L: ferritin having AP1L inserted in GP cassette (human ferritin light chain, fourth loop) (designed binder)
chain: MSSQIRQNYSTDVEAAVNSLVNLYLQASYTYLSLGFYFDRDDVALEGVSHFFRELAEEKREGYERLLKMQNQRGGRALFQDIKKPAEDEWGKTPDAMKAAMALEKKLNQALLDLHALGSARTDPHLCDFLETHFLDEEVKLIKKMGDHLTNLHRLGSCRKRLDRNCGPEAGLGEYLFERLTLKHD
modifications: One monomer is given; it assembles into a 24-mer ferritin cage.
notes: as for B2
B5: FTL-AP1_AP1: fusion polypeptide in which AP1S was fused to N-terminal of FTL_GG-AP1S (designed binder)
chain: MRKRLDRNGGGSGMSSQIRQNYSTDVEAAVNSLVNLYLQASYTYLSLGFYFDRDDVALEGVSHFFRELAEEKREGYERLLKMQNQRGGRALFQDIKKPAEDEWGKTPDAMKAAMALEKKLNQALLDLHALGSARTDPHLCDFLETHFLDEEVKLIKKMGDHLTNLHRGSRKRLDRNGGPEAGLGEYLFERLTLKHD
modifications: One monomer is given; it assembles into a 24-mer ferritin cage.
notes: Expressed from pET28a(+) via NdeI/XhoI and purified on Ni-NTA (His tag); also called ferritin having two inserted AP1 peptides; not shown: His tag from the pET28a(+) vector (Ni-NTA purification)

How the values were obtained:
[1] = target: T1, IL-4 receptor protein immobilised on …; test: SPR, IL-4 receptor immobilised
Description: (§1) Here, the right channel was used as a reference channel. In the two channels, left channel and right channel, 1M ethanolamine (pH 8.5) solution was allowed to flow over the unreacted surface for 7 min for blocking, so as to reduce non-specific adsorption thereof. All test procedures were conducted at a temperature of 25° C. and the flow rate was 25 ul/min.

[2] = target: T1, IL-4 receptor protein immobilised on …; test: SPR, IL-4 receptor immobilised, equilibrium fit
Description: as §1
The buffer (20 mM Tris-HCl pH 8.0, 150 mM NaCl, 180 mM Histidine, 62.5 ug/ml BSA, 0.005% Tween 20) was used through filtering and degassing. […] For regeneration, 2 M NaCl was allowed to flow over for 1 h to wash the proteins remaining without dissociation.
In the binding graph, the RU value expressing the amount of bound protein was measured by subtracting the blank (buffer) value and reference channel (right channel) value, using Scrubber software. The KD value was obtained from the binding RU (Req) values measured at the respective concentrations using KaleidaGraph software.

| Binder | Kd [1] | koff [1] | kon [1] | Kd [2] | fold enhancement of binding affinity against FTL-AP1 [1] |
| --- | --- | --- | --- | --- | --- |
| B1 | 0.443 nM | 0.00125 s⁻¹ | 1.22e+06 M⁻¹ s⁻¹ | 1.19 nM | – |
| B2 | – | – | – | 4.29 nM | – |
| B3 | – | – | – | 25.9 nM | – |
| B4 | – | – | – | 9.9 nM | – |
| B5 | 0.0458 nM | 3.8e-05 s⁻¹ | 826000 M⁻¹ s⁻¹ | – | 10 times |
